Source: patent US20220160843A1 (priority 2019, published 2022)

Legend:
P. aeruginosa [1] = assay: Minimal inhibitory concentration (MIC), modified CLSI broth microdilution in CAA or CAA/HuS; type: cell-based, Pseudomonas aeruginosa; settings: for MIC (μg/mL) in CAA: CAA media; for MIC (μg/mL in CAA/HuS): CAA supplemented with 25% human serum
[2] = tested on: carbapenem-resistant clinical strain, WC-452; assay: Checkerboard assay to examine synergy with antibiotics in CAA/HuS; type: cell-based, P. aeruginosa; settings: for FICI, Fosfomycin: lysin + fosfomycin; for FICI, Gentamicin: lysin + gentamicin; for FICI, Imipenem: lysin + imipenem; for FICI, Meropenem: lysin + meropenem; for FICI, Piperacillin: lysin + piperacillin
Method: Fractional inhibitor concentration index (FICI) values were determined for all combinations; values of <0.5 indicate synergy.
(§1) The checkerboard assays is based on a modification of the CLSI method for MIC determination by broth microdilution (26, 29). Checkerboards were constructed by first preparing columns of a 96-well polypropylene microtiter plate, in which each well had the same amount of antibiotic diluted 2-fold along the horizontal axis. […] Summation fractional inhibitory concentrations (ΣFICs) were calculated for each drug and the minimum ΣFIC value (ΣFICmin) was used to determine synergy. ΣFICs were calculated as follows: ΣFIC=FIC A+FIC B, where FIC A is the MIC of each antibiotic in the combination/MIC of each antibiotic alone, and FIC B is the MIC of each GN lysin in the combination/MIC of each GN lysin alone. The combination is considered synergistic when the ΣFIC is ≤0.5, strongly additive when the ΣFIC is >0.5 to <1, additive with the ΣFIC is 1−<2, and antagonistic when the ΣFIC is ≥2.

[3] = tested on: P. aeruginosa strain ATCC 17647; assay: Minimal Biofilm Eradicating Concentration (MBEC), Calgary Biofilm Device; type: cell-based, Pseudomonas aeruginosa; settings: 24 h biofilm, 24 h treatment; minimum concentration removing >95% of biofilm biomass (crystal violet)
Text: All samples were examined in triplicate.

P. aeruginosa [4] = assay: Time-kill assay of GN lysin activity; type: cell-based, Pseudomonas aeruginosa; settings: for bactericidal activity in the time-kill assay format: 3-hour timepoint, 10 μg/mL, in either CAA/HuS or HEPES buffer; for Log10 CFU/mL T = 3 hr / Log10 CFU/mL T = l hr: lysin 10 μg/mL, T = 0 7.8; for Log10 CFU/mL T = 3 hr: buffer control 7.2, limit of detection 3.7; for Log10 CFU/mL T = l hr: buffer control 7.7
Method: All treatments were incubated at 37° C. with aeration.

human erythrocytes = type: cell-based
Method: The hemolytic activity of the GN lysins was measured as the amount of hemoglobin released by the lysis of human erythrocytes (30). Briefly, 3 ml of fresh human blood cells (hRBCs) obtained from pooled healthy donors (BioreclamationIVT) in a polycarbonate tube containing heparin was centrifuged at 1,000×g for 5 min at 4° C. The erythrocytes obtained were washed three times with phosphate-buffered saline (PBS) solution (pH 7.2) and resuspended in […]. […] Intact erythrocytes were pelleted by centrifugation at 1,000×g for 5 min at 4° C., and the supernatant was transferred to a new 96-well plate. The release of hemoglobin was monitored by measuring the absorbance at 570 nm.

[5] = tested on: carbapenem-resistant P. aeruginosa strains; assay: Resensitization of carbapenem-resistant clinical strains using carbapenems in combination with lysins; type: cell-based
Method: as §1
Up to seven carbapenem-resistant isolates were assessed. […] See Clinical and Laboratory Standards Institute (CLSI), CLSI. […] M100 Performance Standards for Antimicrobial Susceptibility Testing; 29th Edition. Clinical and Laboratory Standards Institute, Wayne, Pa.

[6] = CAA/HuS, ‡ indicates bactericidal activity
[7] = HEPES buffer, ‡ indicates bactericidal activity

B1: GN123: Native lysin, GenBank YP_009217242.1, SEQ ID NO: 27 (protein)
chain: MTLLKKGDKGDAVKQLQQKLKDLGYTLGVDGNFGNGTDTVVRSFQTKMKLSVDGVVGNGTMSTIDSTLAGIKAWKTSVPFPATNKSRAMAMPTLTEIGRLTNVDPKLLATFCSIESAFDYTAKPYKPDGTVYSSAEGWFQFLDATWDDEVRKHGKQYSFPVDPGRSLRKDPRANGLMGAEFLKGNAAILRPVLGHEPSDTDLYLAHFMGAGGAKQFLMADQNKLAAELFPGPAKANPNIFYKSGNIARTLAEVYAVLDAKVAKHRA
modifications: Pseudomonas phage PhiPA3
MIC (μg/mL) in CAA (P. aeruginosa [1]): 2 µg/mL | MIC (μg/mL in CAA/HuS) (P. aeruginosa [1]): 128 µg/mL | FICI, Fosfomycin [2]: 0.250 | FICI, Gentamicin [2]: 0.375 | FICI, Imipenem [2]: 0.188 | FICI, Meropenem [2]: 0.125 | FICI, Piperacillin [2]: 0.500 | MBEC [3]: 4 µg/mL | bactericidal activity in the time-kill assay format (P. aeruginosa [4]): bactericidal activity | Log10 CFU/mL T = 3 hr (P. aeruginosa [4]; [6]): <3.7‡ Log10 CFU/mL | Log10 CFU/mL T = l hr (P. aeruginosa [4]; CAA/HuS): 6.7 Log10 CFU/mL | Log10 CFU/mL T = 3 hr (P. aeruginosa [4]; [7]): <3.7‡ Log10 CFU/mL | Log10 CFU/mL T = l hr (P. aeruginosa [4]; [7]): 5.6 Log10 CFU/mL | hemolytic activity (human erythrocytes): no hemolytic activity whatsoever | GN123 Alone ([5]; isolate PA19, MIC of GN123 alone (imipenem checkerboard)): 8 µg/mL | GN123 Alone ([5]; isolate PA19, MIC of GN123 alone (meropenem checkerboard)): 8 µg/mL | GN123 Combination ([5]; isolate PA19, MIC of GN123 in combination with imipenem): 0.125 µg/mL | GN123 Combination ([5]; isolate PA19, MIC of GN123 in combination with meropenem): 0.25 µg/mL | FICI ([5]; isolate PA19, imipenem + GN123): 0.03 | FICI ([5]; isolate PA19, meropenem + GN123): 0.046 | GN123 Alone ([5]; isolate PA20, MIC of GN123 alone (imipenem checkerboard)): 16 µg/mL | GN123 Alone ([5]; isolate PA20, MIC of GN123 alone (meropenem checkerboard)): 16 µg/mL | GN123 Combination ([5]; isolate PA20, MIC of GN123 in combination with imipenem): 2 µg/mL | GN123 Combination ([5]; isolate PA20, MIC of GN123 in combination with meropenem): 1 µg/mL | FICI ([5]; isolate PA20, imipenem + GN123): 0.188 | FICI ([5]; isolate PA20, meropenem + GN123): 0.094 | GN123 Alone ([5]; isolate PA21, MIC of GN123 alone (imipenem checkerboard)): 8 µg/mL | GN123 Alone ([5]; isolate PA21, MIC of GN123 alone (meropenem checkerboard)): 8 µg/mL | GN123 Combination ([5]; isolate PA21, MIC of GN123 in combination with imipenem): 1 µg/mL | GN123 Combination ([5]; isolate PA21, MIC of GN123 in combination with meropenem): 1 µg/mL | FICI ([5]; isolate PA21, imipenem + GN123): 0.141 | FICI ([5]; isolate PA21, meropenem + GN123): 0.156 | GN123 Alone ([5]; isolate PA22, MIC of GN123 alone (imipenem checkerboard)): 16 µg/mL | GN123 Alone ([5]; isolate PA22, MIC of GN123 alone (meropenem checkerboard)): 16 µg/mL | GN123 Combination ([5]; isolate PA22, MIC of GN123 in combination with imipenem): 1 µg/mL | GN123 Combination ([5]; isolate PA22, MIC of GN123 in combination with meropenem): 1 µg/mL | FICI ([5]; isolate PA22, imipenem + GN123): 0.188 | FICI ([5]; isolate PA22, meropenem + GN123): 0.125 | GN123 Alone ([5]; isolate PA23, MIC of GN123 alone (imipenem checkerboard)): 8 µg/mL | GN123 Alone ([5]; isolate PA23, MIC of GN123 alone (meropenem checkerboard)): 8 µg/mL | GN123 Combination ([5]; isolate PA23, MIC of GN123 in combination with imipenem): 2 µg/mL | GN123 Combination ([5]; isolate PA23, MIC of GN123 in combination with meropenem): 1 µg/mL | FICI ([5]; isolate PA23, imipenem + GN123): 0.281 | FICI ([5]; isolate PA23, meropenem + GN123): 0.156 | GN123 Alone ([5]; isolate PA24, MIC of GN123 alone (imipenem checkerboard)): 16 µg/mL | GN123 Alone ([5]; isolate PA24, MIC of GN123 alone (meropenem checkerboard)): 16 µg/mL | GN123 Combination ([5]; isolate PA24, MIC of GN123 in combination with imipenem): 2 µg/mL | GN123 Combination ([5]; isolate PA24, MIC of GN123 in combination with meropenem): 0.5 µg/mL | FICI ([5]; isolate PA24, imipenem + GN123): 0.188 | FICI ([5]; isolate PA24, meropenem + GN123): 0.094 | GN123 Alone ([5]; isolate WC-452, MIC of GN123 alone (imipenem checkerboard)): 16 µg/mL | GN123 Alone ([5]; isolate WC-452, MIC of GN123 alone (meropenem checkerboard)): 16 µg/mL | GN123 Combination ([5]; isolate WC-452, MIC of GN123 in combination with imipenem): 2 µg/mL | GN123 Combination ([5]; isolate WC-452, MIC of GN123 in combination with meropenem): 1 µg/mL | FICI ([5]; isolate WC-452, imipenem + GN123): 0.188 | FICI ([5]; isolate WC-452, meropenem + GN123): 0.125 | resensitization of carbapenem-resistant isolates to IPM and MEM ([5]; synergistic combinations with imipenem or meropenem, breakpoints ≤2 sensitive, 4 intermediate, ≥8 resistant): reductions of IPM and MEM MICS to below breakpoint values

B2: GN105: Native lysin, GenBank WP_016046696.1, SEQ ID NO: 25 (protein, listed as Pseudomonas aeruginosa)
chain: MAVVSEKTAGGRNVLAFLDMLAWSEGTSTIRGSDNGYNVVVGGGLFNGYADHPRLKVYLPRYKVYSTAAGRYQLLSRYWDAYRESLALKGGFTPSNQDLVALQQIKERRSLADIQAGRLADAVQKCSNIWASLPGAGYGQREHSLDDLTAHYLAAGGVLS
MIC (μg/mL) in CAA (P. aeruginosa [1]): >128 µg/mL | MIC (μg/mL in CAA/HuS) (P. aeruginosa [1]): 32 µg/mL | MBEC [3]: 4 µg/mL | Log10 CFU/mL T = 3 hr (P. aeruginosa [4]; [6]): 6.3 Log10 CFU/mL | Log10 CFU/mL T = l hr (P. aeruginosa [4]; CAA/HuS): 7.0 Log10 CFU/mL | Log10 CFU/mL T = 3 hr (P. aeruginosa [4]; [7]): <3.7 Log10 CFU/mL | Log10 CFU/mL T = l hr (P. aeruginosa [4]; [7]): 6.6 Log10 CFU/mL | hemolytic activity (human erythrocytes): no hemolytic activity whatsoever

B3: GN10: Native lysin, GenBank YP_002600773.1, SEQ ID NO: 22 (protein)
chain: MSKQGGVKVAQAVAALSSPGLKIDGIVGKATRAAVSSMPSSQKAATDKILQSAGIGSLDSLLAEPAAATSDTFREVVLAVAREARKRGLNPAFYVAHIALETGWGRSVPKLPDGRSSYNYAGLKYAAVKTQVKGKTETNTLEYIKSLPKTVRDSFAVFASAGDFSRVYFWYLLDSPSAYRYPGLKNAKTAQEFGDILQKGGYATDPAYAAKVASIASTAVARYGSDVSSVA
modifications: Pseudomonas phage phi2954
MIC (μg/mL) in CAA (P. aeruginosa [1]): 8 µg/mL | MIC (μg/mL in CAA/HuS) (P. aeruginosa [1]): 16 µg/mL | MBEC [3]: 0.5 µg/mL | Log10 CFU/mL T = 3 hr (P. aeruginosa [4]; [6]): 7.4 Log10 CFU/mL | Log10 CFU/mL T = l hr (P. aeruginosa [4]; CAA/HuS): 7.4 Log10 CFU/mL | Log10 CFU/mL T = 3 hr (P. aeruginosa [4]; [7]): <3.7‡ Log10 CFU/mL | Log10 CFU/mL T = l hr (P. aeruginosa [4]; [7]): 5.7 Log10 CFU/mL | hemolytic activity (human erythrocytes): no hemolytic activity whatsoever

B4: GN108: Native lysin, GenBank YP_009288673.1, SEQ ID NO: 26 (protein)
chain: MILTKDGFSIIRNELFEGKLDQTQVDAINFIVEKATEYGLTYPEAAYLLATIYHETGLPSGYRTMQPIKEAGSDSYLRSKKYYPYIGYGYVQLTWEENYERIGKLIGIDLVKNPEKALEPLIAIQIAIKGMLNGWFTGVGFRRKRPVSKYNKQQYVAARNIINGKDKAELIAKYAIIFERALRSL
modifications: Acinetobacter phage phiAB6
MIC (μg/mL) in CAA (P. aeruginosa [1]): 8 µg/mL | MIC (μg/mL in CAA/HuS) (P. aeruginosa [1]): 8 µg/mL | synergy with antibiotics in the checkerboard assay [2]: synergize with a range of antibiotics | FICI, Amikacin ([2]; lysin + amikacin): 0.156 | FICI, Azithromycin ([2]; lysin + azithromycin): 0.060 | FICI, Aztreonam ([2]; lysin + aztreonam): 0.250 | FICI, Ciprofloxacin ([2]; lysin + ciprofloxacin): 0.281 | FICI, Colistin ([2]; lysin + colistin): 0.133 | FICI, Fosfomycin [2]: 0.188 | FICI, Gentamicin [2]: 0.188 | FICI, Imipenem [2]: 0.039 | FICI, Meropenem [2]: 0.250 | FICI, Piperacillin [2]: 0.531 | FICI, Rifampicin ([2]; lysin + rifampicin): 0.125 | FICI, Tobramycin ([2]; lysin + tobramycin): 0.188 | MBEC [3]: 0.125 µg/mL | bactericidal activity in the time-kill assay format (P. aeruginosa [4]): bactericidal activity | Log10 CFU/mL T = 3 hr (P. aeruginosa [4]; [6]): <3.7‡ Log10 CFU/mL | Log10 CFU/mL T = l hr (P. aeruginosa [4]; CAA/HuS): 5.7 Log10 CFU/mL | Log10 CFU/mL T = 3 hr (P. aeruginosa [4]; [7]): <3.7‡ Log10 CFU/mL | Log10 CFU/mL T = l hr (P. aeruginosa [4]; [7]): 6.4 Log10 CFU/mL | hemolytic activity (human erythrocytes): no hemolytic activity whatsoever
